In patent US7063946B2, “Methods, reagents, kits and apparatus for protein function analysis” (Meso Scale Technologies, LLC., priority 2001, dated 2006):

Columns and labels:
[1] = system: pooled phosphopeptide:BSA conjugates (Pools A-D); assay: Coded multiplex phosphopeptide binding assay with pooled peptide:BSA conjugates on 4 spots
Text: To prepare the Multi-Spot IPR plates, in this example we made use of pools of the peptide:BSA conjugates to coat each of 4 spots per well in a 96 well plate. To achieve this we made the following pools; • Pool A; EGFR-pTyr1148, IkBa-24ppC, Myc-p58Tp62S. • Pool B; EGFR-pTyr992, EGFR-pTyr1148, Smad3C. • Pool C; EGFR-pTyr1068, IkBa-24ppC, Smad3C. • Pool D; EGFR-pTyr992, EGFR-pTyr1068, Myc-p58Tp62S.
This combination of the various peptides results in any single peptide being present in two pools. Each of these four pools is then spotted on to a unique spot in a 4 spot array. In this way any single binding protein with specificity for only one of the peptides would bind to two spots; the identity of the two spots would allow the identification of the peptide involved in the binding reaction.
Typically approximately 120 fmole of peptide:BSA conjugate in 0.25 μl was deposited on each spot of a 4-spot multi-array IPR plates using a BioDot Dispenser (Bio-Dot Inc., vIrvine Calif.). At this stage, the plates were dried then used or stored under desiccated condition. A few hours prior to usage, the plates were rehydrated and blocked with 3% BSA, in PBS.
To test the system the following EST clones IMAGE # 3491843, 4237375, 4398016, 4419252, 3872466, 3907115 were obtained. These clones express the following genes βTRCP1, βTRCP2, Grb2, PLCγ, CBP and Shc1, respectively. […] These DNAs were used to produce proteins as described in the Materials and Methods. Proteins were transferred to a well of the 4 spot peptide-coated and BSA blocked ECL plates. The binding assay (using Sulfo-TAG labeled streptavidin as a detection agent) was carried our according to the procedures described in Example 11.

[2] = system: autophosphorylation (phosphotyrosine); assay: In vitro kinase library screen: autophosphorylation; format: biochemical
Procedure: Proteins were produced from DNA plasmids of Mock Luciferase, Promega, tyrosine kinase clone Spleen Tyrosine kinase (SYK, IMAGE ID# 3870426) and Eph receptor-A7 (EphA7, IMAGE ID# 3991628) (Incyte Genomics, CA) and immobilized on streptavidin or avidin coated NPT-IPR plates as described in the Example 7. To promote autophosphorylation in these immobilized and purified proteins, Mn++ ions were added in a 50 μl reaction containing 5 mM MgCl2, 5 mM MnCl2, 100 μM ATP, 25 mM Tris-HCl buffer pH 7.4, 0.05 mM Na3VO4, 0.004% TritonX-100, 2 mM DTT and EDTA-free protease inhibitor (Roche Molecular Biochemicals). This mixture was incubated with shaking at room temperature overnight to allow autophosphorylation. Following this incubation, wells were washed 2 times with TT-buffer and 2 times with water. Following this step, 50 ng Sulfo-TAG labeled anti-phosphotyrosine in buffer containing 25 mM Tris-HCl buffer pH 7.4, 5 mM MgCl2, 0.05 mM Na3VO4, 0.004% TritonX-100, 2 mM DTT and 0.05% IgG in a final volume of 50 μl was added followed by incubation at room temperature for 45 min. The unbound reagents were removed by one time washing with water, and the TAG label was detected in presence of 150 μl IPR assay buffer (0.4 mM Gly—Gly buffer, pH 7.8, 1 mM EDTA, 0.1 M TPA). The ECL signals were measured using an imaging plate reader.
(§1) Proteins were produced in an in vitro transcription and translation reaction as described in the Materials and Methods. […] The reaction was stopped by mixing with BB2 buffer. Biotinylated proteins from 50 μl of the mixture (representing 0.5 μl to 5 μl of TnT reaction) were immobilized onto streptavidin or avidin coated NPT-IPR plates by shaking at room temperature for 45 min. The activity of the immobilized protein towards pEY or autophosphorylation was further assayed by the methods described in examples 7 and 8.

pEY = assay: In vitro kinase library screen: activity towards pEY; format: biochemical; details: 5 ul of expressed protein
Procedure: Proteins were produced in an in vitro transcription and translation reaction. […] The unbound components of the reaction containing endogenous kinases were removed by three washes with TT-buffer (25 mM Tris-HCl buffer pH 7.4 and 0.004% Triton), two five minutes washings with high-salt wash buffer (25 mM Tris-HCl buffer pH 7.4, 0.004% Triton, 1M NaCl and 5 mM DTT) and 3 more washes with TT-buffer. To these immobilized and purified proteins a tyrosine kinase substrate, 5 nM pEY (poly Glu-Tyr, Sigma, MO), was added in a 50 μl reaction solution containing 5 mM MgCl2, 5 mM MnCl2, 100 μM ATP, 25 mM Tris-HCl buffer pH 7.4, 0.05 mM Na3VO4, 0.004% TritonX-100, 2 mM DTT and EDTA-free protease inhibitor (Roche Molecular Biochemicals). This mixture was incubated with shaking at room temperature overnight to allow phosphorylation of the pEY substrate by the immobilized kinases. Following this incubation, 45 μl of this mixture was transferred to a streptavidin or avidin-coated NPT IPR plate coated with biotinylated anti-phosphotyrosine antibody (PY20, Zymed labs, CA) followed by incubation for 30 minutes at room temperature to allow the binding of the phosphorylated pEY substrate to the PY20 coated NPT plate. Following this binding step, 50 ng Sulfo-TAG labeled anti-phosphotyrosine in buffer containing 25 mM Tris-HCl buffer pH 7.4, 5 mM MgCl2, 0.05 mM Na3VO4, 0.004% TritonX-100, 2 mM DTT and 0.05% IgG was added followed by incubation at room temperature for 30 mm. The unbound reagents were removed by one time washing with water, and the TAG label was detected in presence of 150 μl IPR assay buffer (0.4 mM Gly-Gly buffer, pH 7.8, 1 mM EDTA, 0.1 M TPA). The ECL signals were measured using an imaging plate reader.
as §1

Row | Code (pattern of positive spots) [1] | Peptide determined from code [1] | ECL signal, spot A ([1]; Pool A, EGFR-pTyr1148, IkBa-24ppC, Myc-p58Tp62S) | ECL signal, spot B ([1]; Pool B, EGFR-pTyr992, EGFR-pTyr1148, Smad3C) | ECL signal, spot C ([1]; Pool C, EGFR-pTyr1068, IkBa-24ppC, Smad3C) | ECL signal, spot D ([1]; Pool D, EGFR-pTyr992, EGFR-pTyr1068, Myc-p58Tp62S) | ECL signal [2] | HTS signal (pEY) | Molecule
1 | A, B | EGFR-pTyr1148 | 260 | 318 | 24 | 26 | – | – | 3907115: IMAGE clone protein: Shc1 (protein) MNKLSGGGGRRTRVEGGQLGGEEWTRHGSFVNKPTRGWLHPNDKVMGPGVSYLVRYMGCVEVLQSMRALDFNTRTQVTREAISLVCEAVPGAKGATRRRKPCSRPLSSILGRSNLKFAGMPITLTVSTSSLNLMAADCKQIIANHHMQSISFASGGDPDTAEYVAYVAKDPVNQRACHILECPEGLAQDVISTIGQAFELRFKQYLRNPPKLVTPHDRMAGFDGSAWDEEEEEPPDHQYYNDFPGKEPPLGGVVDMRLREGAAPGAARPTAPNAQTPSHLGATLPVGQPVGGDPEVRKQMPPPPPCPGRELFDDPSYVNVQNLDKARQAVGGAGPPNPAINGSAPRDLFDMKPFEDALRVPPPPQSVSMAEQLRGEPWFHGKLSRREAEALLQLNGDFLVRESTTTPGQYVLTGLQSGQPKHLLLVDPEGVVRTKDHRFESVSHLISYHMDNHLPIISAGSELCLQQPVERKL
2 | – | – | – | – | – | – | 301,418 | 184,534 | 3978518: IMAGE clone protein: Hck, hemopoietic cell kinase (protein, UniProt P08103 2-524, looked up) Tyrosine-protein kinase HCK: GGRSSCEDPGCPRSEGRAPRMGCVKSRFLRDGSKASKTEPSANQKGPVYVPDPTSSSKLGPNNSNSMPPGFVEGSEDTIVVALYDYEAIHREDLSFQKGDQMVVLEEAGEWWKARSLATKKEGYIPSNYVARVNSLETEEWFFKGISRKDAERHLLAPGNMLGSFMIRDSETTKGSYSLSVRDFDPQHGDTVKHYKIRTLDSGGFYISPRSTFSSLQELVLHYKKGKDGLCQKLSVPCVSPKPQKPWEKDAWEIPRESLQMEKKLGAGQFGEVWMATYNKHTKVAVKTMKPGSMSVEAFLAEANLMKSLQHDKLVKLHAVVSQEPIFIVTEFMAKGSLLDFLKSEEGSKQPLPKLIDFSAQISEGMAFIEQRNYIHRDLRAANILVSASLVCKIADFGLARIIEDNEYTAREGAKFPIKWTAPEAINFGSFTIKSDVWSFGILLMEIVTYGRIPYPGMSNPEVIRALEHGYRMPRPDNCPEELYNIMIRCWKNRPEERPTFEYIQSVLDDFYTATESQYQQQP
3 | – | – | – | – | – | – | 27,372 | 47,477 | 3873932: IMAGE clone protein: MATK, megakaryocyte-associated tyrosine kinase (protein, UniProt P42679 1-507, looked up) Megakaryocyte-associated …: MAGRGSLVSWRAFHGCDSAEELPRVSPRFLRAWHPPPVSARMPTRRWAPGTQCITKCEHTRPKPGELAFRKGDVVTILEACENKSWYRVKHHTSGQEGLLAAGALREREALSADPKLSLMPWFHGKISGQEAVQQLQPPEDGLFLVRESARHPGDYVLCVSFGRDVIHYRVLHRDGHLTIDEAVFFCNLMDMVEHYSKDKGAICTKLVRPKRKHGTKSAEEELARAGWLLNLQHLTLGAQIGEGEFGAVLQGEYLGQKVAVKNIKCDVTAQAFLDETAVMTKMQHENLVRLLGVILHQGLYIVMEHVSKGNLVNFLRTRGRALVNTAQLLQFSLHVAEGMEYLESKKLVHRDLAARNILVSEDLVAKVSDFGLAKAERKGLDSSRLPVKWTAPEALKHGKFTSKSDVWSFGVLLWEVFSYGRAPYPKMSLKEVSEAVEKGYRMEPPEGCPGPVHVLMSSCWEAEPARRPPFRKLAEKLARELRSAGAPASVSGQDADGSTSPRSQEP
4 | – | – | – | – | – | – | 10,540 | 1,174 | 3673003: IMAGE clone protein: Ephb3, Eph receptor B3 (protein, UniProt P54754 30-993, looked up) Ephrin type-B receptor 3: LEETLMDTKWVTSELAWTSHPESGWEEVSGYDEAMNPIRTYQVCNVRESSQNNWLRTGFIWRREVQRVYVELKFTVRDCNSIPNIPGSCKETFNLFYYEADSDVASASSPFWMENPYVKVDTIAPDESFSRLDAGRVNTKVRSFGPLSKAGFYLAFQDQGACMSLISVRAFYKKCASTTAGFALFPETLTGAEPTSLVIAPGTCIANAVEVSVPLKLYCNGDGEWMVPVGACTCATGHEPAAKESQCRACPPGSYKAKQGEGPCLPCPPNSRTTSPAASICTCHNNFYRADSDSADSACTTVPSPPRGVISNVNETSLILEWSEPRDLGGRDDLLYNVICKKCRGSSGAGGPATCSRCDDNVEFVPRQLGLTERRVHISHLLAHTRYTFEVQAVNGVSGKSPLPPRYAAVNITTNQAAPSEVPTLHLHSSSGSSLTLSWAPPERPNGVILDYEMKYFEKSKGIASTVTSQKNSVQLDGLQPDARYVVQVRARTVAGYGQYSHPAEFETTSERGSGAQQLQEQLPLIVGSTVAGFVFMVVVVVIALVCLRKQRHGPDAEYTEKLQQYIAPGMKVYIDPFTYEDPNEAVREFAKEIDVSCVKIEEVIGAGEFGEVCRGRLKLPGRREVFVAIKTLKVGYTERQRRDFLSEASIMGQFDHPNIIRLEGVVTKSRPVMILTEFMENCALDSFLRLNDGQFTVIQLVGMLRGIAAGMKYLSEMNYVHRDLAARNILVNSNLVCKVSDFGLSRFLEDDPSDPTYTSSLGGKIPIRWTAPEAIAYRKFTSASDVWSYGIVMWEVMSYGERPYWDMSNQDVINAVEQDYRLPPPMDCPTALHQLMLDCWVRDRNLRPKFSQIVNTLDKLIRNAASLKVTASAPSGMSQPLLDRTVPDYTTFTTVGDWLDAIKMGRYKESFVGAGFASFDLVAQMTAEDLLRIGVTLAGHQKKILCSIQDMRLQMNQTLPVQV
